B1: SPAM1-ILFL: C-terminally truncated human PH20, precursor 501 aa (SEQ ID NO:6), mature 466 aa (SEQ ID NO:58) (protein, listed as Homo sapiens)
chain 1: MGVLKFKHIFFRSFVKSSGVSQIVFTFLLIPCCLTLNFRAPPVIPNVPFLWAWNAPSEFCLGKFDEPLDMSLFSFIGSPRINATGQGVTIFYVDRLGYYPYIDSITGVTVNGGIPQKISLQDHLDKAKKDITFYMPVDNLGMAVIDWEEWRPTWARNWKPKDVYKNRSIELVQQQNVQLSLTEATEKAKQEFEKAGKDFLVETIKLGKLLRPNHLWGYYLFPDCYNHHYKKPGYNGSCFNVEIKRNDDLSWLWNESTALYPSIYLNTQQSPVAATLYVRNRVREAIRVSKIPDAKSPLPVFAYTRIVFTDQVLKFLSQDELVYTFGETVALGASGIVIWGTLSIMRSMKSCLLLDNYMETILNPYIINVTLAAKMCSQVLCQEQGVCIRKNWNSSDYLHLNPDNFAIQLEKGGKFTVRGKPTLEDLEQFSEKFYCSCYSTLSCKEKADVKDTDAVDVCIADGVCIDAFLKPPMETEEPQIFYNASPSTLSATMFIVSILFL
chain 2: LNFRAPPVIPNVPFLWAWNAPSEFCLGKFDEPLDMSLFSFIGSPRINATGQGVTIFYVDRLGYYPYIDSITGVTVNGGIPQKISLQDHLDKAKKDITFYMPVDNLGMAVIDWEEWRPTWARNWKPKDVYKNRSIELVQQQNVQLSLTEATEKAKQEFEKAGKDFLVETIKLGKLLRPNHLWGYYLFPDCYNHHYKKPGYNGSCFNVEIKRNDDLSWLWNESTALYPSIYLNTQQSPVAATLYVRNRVREAIRVSKIPDAKSPLPVFAYTRIVFTDQVLKFLSQDELVYTFGETVALGASGIVIWGTLSIMRSMKSCLLLDNYMETILNPYIINVTLAAKMCSQVLCQEQGVCIRKNWNSSDYLHLNPDNFAIQLEKGGKFTVRGKPTLEDLEQFSEKFYCSCYSTLSCKEKADVKDTDAVDVCIADGVCIDAFLKPPMETEEPQIFYNASPSTLSATMFIVSILFL
modifications: HuPH20 precursor 1-501; mature HuPH20 36-501
B2: SPAM1-SSVA: C-terminally truncated human PH20, precursor 507 aa (SEQ ID NO:3), mature 472 aa (SEQ ID NO:55) (protein, listed as Homo sapiens)
chain 1: MGVLKFKHIFFRSFVKSSGVSQIVFTFLLIPCCLTLNFRAPPVIPNVPFLWAWNAPSEFCLGKFDEPLDMSLFSFIGSPRINATGQGVTIFYVDRLGYYPYIDSITGVTVNGGIPQKISLQDHLDKAKKDITFYMPVDNLGMAVIDWEEWRPTWARNWKPKDVYKNRSIELVQQQNVQLSLTEATEKAKQEFEKAGKDFLVETIKLGKLLRPNHLWGYYLFPDCYNHHYKKPGYNGSCFNVEIKRNDDLSWLWNESTALYPSIYLNTQQSPVAATLYVRNRVREAIRVSKIPDAKSPLPVFAYTRIVFTDQVLKFLSQDELVYTFGETVALGASGIVIWGTLSIMRSMKSCLLLDNYMETILNPYIINVTLAAKMCSQVLCQEQGVCIRKNWNSSDYLHLNPDNFAIQLEKGGKFTVRGKPTLEDLEQFSEKFYCSCYSTLSCKEKADVKDTDAVDVCIADGVCIDAFLKPPMETEEPQIFYNASPSTLSATMFIVSILFLIISSVA
chain 2: LNFRAPPVIPNVPFLWAWNAPSEFCLGKFDEPLDMSLFSFIGSPRINATGQGVTIFYVDRLGYYPYIDSITGVTVNGGIPQKISLQDHLDKAKKDITFYMPVDNLGMAVIDWEEWRPTWARNWKPKDVYKNRSIELVQQQNVQLSLTEATEKAKQEFEKAGKDFLVETIKLGKLLRPNHLWGYYLFPDCYNHHYKKPGYNGSCFNVEIKRNDDLSWLWNESTALYPSIYLNTQQSPVAATLYVRNRVREAIRVSKIPDAKSPLPVFAYTRIVFTDQVLKFLSQDELVYTFGETVALGASGIVIWGTLSIMRSMKSCLLLDNYMETILNPYIINVTLAAKMCSQVLCQEQGVCIRKNWNSSDYLHLNPDNFAIQLEKGGKFTVRGKPTLEDLEQFSEKFYCSCYSTLSCKEKADVKDTDAVDVCIADGVCIDAFLKPPMETEEPQIFYNASPSTLSATMFIVSILFLIISSVA
modifications: HuPH20 precursor 1-507; mature HuPH20 36-507
B3: SPAM1-LFLI: C-terminally truncated human PH20, precursor 502 aa (SEQ ID NO:47), mature 467 aa (SEQ ID NO:99) (protein, listed as Homo sapiens)
chain 1: MGVLKFKHIFFRSFVKSSGVSQIVFTFLLIPCCLTLNFRAPPVIPNVPFLWAWNAPSEFCLGKFDEPLDMSLFSFIGSPRINATGQGVTIFYVDRLGYYPYIDSITGVTVNGGIPQKISLQDHLDKAKKDITFYMPVDNLGMAVIDWEEWRPTWARNWKPKDVYKNRSIELVQQQNVQLSLTEATEKAKQEFEKAGKDFLVETIKLGKLLRPNHLWGYYLFPDCYNHHYKKPGYNGSCFNVEIKRNDDLSWLWNESTALYPSIYLNTQQSPVAATLYVRNRVREAIRVSKIPDAKSPLPVFAYTRIVFTDQVLKFLSQDELVYTFGETVALGASGIVIWGTLSIMRSMKSCLLLDNYMETILNPYIINVTLAAKMCSQVLCQEQGVCIRKNWNSSDYLHLNPDNFAIQLEKGGKFTVRGKPTLEDLEQFSEKFYCSCYSTLSCKEKADVKDTDAVDVCIADGVCIDAFLKPPMETEEPQIFYNASPSTLSATMFIVSILFLI
chain 2: LNFRAPPVIPNVPFLWAWNAPSEFCLGKFDEPLDMSLFSFIGSPRINATGQGVTIFYVDRLGYYPYIDSITGVTVNGGIPQKISLQDHLDKAKKDITFYMPVDNLGMAVIDWEEWRPTWARNWKPKDVYKNRSIELVQQQNVQLSLTEATEKAKQEFEKAGKDFLVETIKLGKLLRPNHLWGYYLFPDCYNHHYKKPGYNGSCFNVEIKRNDDLSWLWNESTALYPSIYLNTQQSPVAATLYVRNRVREAIRVSKIPDAKSPLPVFAYTRIVFTDQVLKFLSQDELVYTFGETVALGASGIVIWGTLSIMRSMKSCLLLDNYMETILNPYIINVTLAAKMCSQVLCQEQGVCIRKNWNSSDYLHLNPDNFAIQLEKGGKFTVRGKPTLEDLEQFSEKFYCSCYSTLSCKEKADVKDTDAVDVCIADGVCIDAFLKPPMETEEPQIFYNASPSTLSATMFIVSILFLI
modifications: HuPH20 precursor 1-502; Mature HuPH20 36-502

Assays:
[1] = tested on: CHO-S cells; experiment: PI-PLC treatment of expressing cells, Western blot of media and cells; assay type: cell-based, Chinese Hamster; conditions: cells incubated with PI-PLC for 2 hours
Description: In this example, following transient expression, as described in Example 2 above, the media and cells were harvested separately and analyzed for PH20 expression and solublility by Western blot analysis. Solubility of the C-terminus truncation mutants was determined by examining whether the expressed protein was present in the growth media or in the cells. […] Cells expressing these mutants were treated with phosphoinositol-phospholipase C (PI-PLC), which cleaves the GPI-anchor allowing the release of soluble protein into the media, and the presence of PH20 in the resulting media and cells was determined by Western blot analysis.
Following expression of rHuPH20 in CHO—S cells for 72 hours, as described in Example 2A above, the media and cells were harvested separately. The cells were washed with serum-free media followed by the addition of 2 mL serum-free media per well. PI-PLC (0.5 units/well) was added to each well and the cells were incubated in the PI-PLC for 2 hours. The resultant media and cells were analyzed by Western blot analysis as described above.
Two plates each of rHuPH20 expressing CHO—S cells, one for treatment with PI-PLC and one without treatment with PI-PLC, were prepared for each C-terminus mutant as described in Example 2B above. Following expression for 48 hours, for cells untreated with PI-PLC, the media and cells were harvested separately. The harvested media was spun down, concentrated to a volume of 10 mL, and buffer exchanged into PBS using an Amicon 30 kD MWCO concentrator. The cells were rinsed with cold PBS and scraped and resuspended in 1.2 mL PBS with protease inhibitor Set III (Cat No. 539134, Calbiochem). The resuspended cells were briefly sonicated to prepare whole-cell extract. For PI-PLC treatment of cells, following expression for 48 hours, the untreated media was harvested, as described above. The cells were rinsed once with fresh CD DG44 medium with Glutamax-1, and the media was replaced with 12 mL fresh detergent free CD DG44 medium supplemented with Glutamax-1 with 3.0 units PI-PLC per dish, and the cells were incubated for 2 hours at 37° C. with 5% CO2. After 2 hours, the PI-PLC media and cells were harvested separately, as described above. The resultant untreated media and cells, and PI-PLC treated media and cells, were analyzed by Western blot analysis as described above.

[2] = Microtiter hyaluronidase activity assay with biotinylated-hyaluronic acid; assay type: biochemical; conditions: for pH 5.5 Activity / pH 7.4 Activity: 72 hour post transfection supernatant; for Hyaluronidase activity (in words): pH 7.4 and pH 5.5

Molecule | Expressed in Media Following Addition of PI-PLC [1] | pH 5.5 Activity ([2]; Table 6) | pH 7.4 Activity ([2]; Table 6) | pH 5.5 Activity ([2]; Table 6A) | pH 7.4 Activity ([2]; Table 6A) | Hyaluronidase activity (in words) [2]
B1 | YES | 0.0405 Units/ml | 0.0405 Units/ml | 0.122 Units/ml | 0.446 Units/ml | little detectable activity
B2 | YES | 1.125 Units/ml | 1.4715 Units/ml | 1.256 Units/ml | 1.782 Units/ml | 
B3 | YES |  |  | 0.324 Units/ml | 0.608 Units/ml | little detectable activity

— patent publication US9284543B2, “Neutral active soluble truncated PH20 polypeptides and uses thereof” (Halozyme, Inc., priority 2008, dated 2016)
